This note sets out measurements from US20250297323A1, “METHODS OF USING LONG NON-CODING RNA-8 (TROLL-8) AS A TARGET FOR CANCER DETECTION AND TREATMENT” (H. LEE MOFFITT CANCER CENTER AND RESEARCH INSTITUTE, INC., priority 2022, published 2025).

The target in assay [1] is T1, carnitine palmitoyltransferase 1A (CPT1A) (human, UniProt P50416 2-773).
T1 construct: Endogenous protein immunoprecipitated from cell lysate with anti-CPT1A antibody (15184-1-AP, Proteintech); also called FAO rate-limiting enzyme
T1 sequence (looked up): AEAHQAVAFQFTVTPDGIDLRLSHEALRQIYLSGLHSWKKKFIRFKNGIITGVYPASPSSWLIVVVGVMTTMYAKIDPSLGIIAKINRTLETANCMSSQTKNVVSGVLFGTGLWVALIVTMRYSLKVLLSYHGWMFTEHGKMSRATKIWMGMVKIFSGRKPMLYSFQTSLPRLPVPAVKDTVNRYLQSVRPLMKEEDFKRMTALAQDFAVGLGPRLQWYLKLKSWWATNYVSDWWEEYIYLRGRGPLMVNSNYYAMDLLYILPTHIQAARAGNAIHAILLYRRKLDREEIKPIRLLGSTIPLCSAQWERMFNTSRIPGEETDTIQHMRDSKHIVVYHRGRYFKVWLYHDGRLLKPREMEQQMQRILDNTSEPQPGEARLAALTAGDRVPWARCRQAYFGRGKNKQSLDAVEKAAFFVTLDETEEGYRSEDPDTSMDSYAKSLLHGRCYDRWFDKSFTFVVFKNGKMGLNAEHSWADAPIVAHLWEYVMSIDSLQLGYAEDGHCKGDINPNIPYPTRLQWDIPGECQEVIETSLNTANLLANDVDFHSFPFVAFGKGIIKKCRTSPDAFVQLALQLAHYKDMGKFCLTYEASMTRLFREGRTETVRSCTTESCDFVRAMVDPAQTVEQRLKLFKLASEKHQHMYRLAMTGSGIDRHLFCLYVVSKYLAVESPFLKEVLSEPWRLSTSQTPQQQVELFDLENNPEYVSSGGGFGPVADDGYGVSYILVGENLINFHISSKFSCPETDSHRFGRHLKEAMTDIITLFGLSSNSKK
In words: co-IP with anti-CPT1A antibody from CA1D cell lysate, western blot. The text has this: Beyond its classical activity, ACAT1 acetylates the Pyruvate Dehydrogenase Phosphatase Catalytic Subunit1 (PDP1) and the Pyruvate Dehydrogenase E1 Subunit Alpha1 (PDHA1) in the Pyruvate Dehydrogenase Complex (PDC), which negatively regulates the activity of Pyruvate Dehydrogenase (PDH) in glycolysis and tumor growth. […] In the experiment, we have the following groups: whole cell lysate (5% of the total input); cell lysate from either CA1D cells, or siNT/siTROLL-8 treated CA1D cells immunoprecipitated with CPT1A specific antibody; or the same cell lysate immunoprecipitated with normal IgG control antibody. […] While there is no change in the expression level of either CPT1A or ACAT1 in the whole cell lysate, CPT1A specifically immunoprecipitated more ACAT1 (by around 2-fold) in siTROLL-8 CA1D cells compared to non-treated cells, confirming the LC-MS discovery that TROLL-8 depletion increased the physical interaction between CPT1A and ACAT1.
4 mg cell lysate of CA1D cells were prepared using RIPA buffer and used to test the interaction between CPT1A and ACAT1. 4 mg cell lysate of either CA1D cells transfected with siRNAs for TROLL-8, or with the non-targeting siRNA as a negative control, were used to test the change in the interaction between CPT1A and ACAT1. The CoIP assay was performed according to the protocol provided with the anti-CPT1A primary antibody (15184-1-AP). […]
Background: A western blot detects proteins with antibodies after separation by electrophoresis.

In assay [2] the target is T1, carnitine palmitoyltransferase 1A …. Put plainly: co-IP with anti-CPT1A antibody from CA1D cell lysate, LC-MS/MS proteomics. Here is the method: 4 mg cell lysate of CA1D cells were prepared using RIPA buffer and used to test the interaction between CPT1A and ACAT1. 4 mg cell lysate of either CA1D cells transfected with siRNAs for TROLL-8, or with the non-targeting siRNA as a negative control, were used to test the change in the interaction between CPT1A and ACAT1. The CoIP assay was performed according to the protocol provided with the anti-CPT1A primary antibody (15184-1-AP). Add anti-CPT1A primary antibody (15184-1-AP, Proteintech) or negative control normal rabbit IgG (#2729, Cell Signaling) corresponding to the primary antibody source to the lysate with gentle rocking at 4° C. for 12 h. 50 ul Protein G Dynabeads slurry were added to capture the immunocomplex with gentle rocking at 4° C. for 12 h. Collect the beads with magnetic stand and discard the supernatant. Wash the beads 3 times with 1 ml 0.2% TBST, collect the beads with magnetic stand and discard the supernatant. […] The interaction was then detected via western blot using the following primary antibodies: CPT1A (ab128568, Abcam), ACAT1 (ab168342, Abcam), and beta-actin (A5441, Sigma-Aldrich).
1.5×10⁶ CA1D cells were transfected with either siNT (negative control) or siTROLL-8. […] The SDS-PAGE gel bands or the immunoprecipitated proteins were extracted, digested with trypsin, and analyzed via LC-MS/MS and the identified peptides are listed in Supplementary Data 1. […]

B1: ACAT1, the acetyl-CoA acetyltransferase 1 protein (enzyme, human, UniProt P24752 34-427, looked up)
chain: VSKPTLKEVVIVSATRTPIGSFLGSLSLLPATKLGSIAIQGAIEKAGIPKEEVKEAYMGNVLQGGEGQAPTRQAVLGAGLPISTPCTTINKVCASGMKAIMMASQSLMCGHQDVMVAGGMESMSNVPYVMNRGSTPYGGVKLEDLIVKDGLTDVYNKIHMGSCAENTAKKLNIARNEQDAYAINSYTRSKAAWEAGKFGNEVIPVTVTVKGQPDVVVKEDEEYKRVDFSKVPKLKTVFQKENGTVTAANASTLNDGAAALVLMTADAAKRLNVTPLARIVAFADAAVEPIDFPIAPVYAASMVLKDVGLKKEDIAMWEVNEAFSLVVLANIKMLEIDPQKVNINGGAVSLGHPIGMSGARIVGHLTHALKQGEYGLASICNGGGGASAMLIQKL
notes: Endogenous protein co-immunoprecipitated with CPT1A from cell lysate; also called acetyltransferase ACAT1
As for B1, the “fold change of ACAT1 immunoprecipitated by CPT1A (siTROLL-8 vs non-treated CA1D cells)” value in assay [1] is about 2 fold. The “fold change of co-immunoprecipitation with CPT1A (TROLL-8 depleted vs non-treated CA1D cells)” value in assay [2] was about 2 fold.
